Source: patent publication US20190177417A1 (BIOATLA, published 2019)
Changes are numbered by the printed parent chain. Names may count otherwise.

T1: Axl protein (human, UniProt P30530 26-451)
T1 construct: extracellular domain; also called human Axl; hAxl
T1 sequence (looked up): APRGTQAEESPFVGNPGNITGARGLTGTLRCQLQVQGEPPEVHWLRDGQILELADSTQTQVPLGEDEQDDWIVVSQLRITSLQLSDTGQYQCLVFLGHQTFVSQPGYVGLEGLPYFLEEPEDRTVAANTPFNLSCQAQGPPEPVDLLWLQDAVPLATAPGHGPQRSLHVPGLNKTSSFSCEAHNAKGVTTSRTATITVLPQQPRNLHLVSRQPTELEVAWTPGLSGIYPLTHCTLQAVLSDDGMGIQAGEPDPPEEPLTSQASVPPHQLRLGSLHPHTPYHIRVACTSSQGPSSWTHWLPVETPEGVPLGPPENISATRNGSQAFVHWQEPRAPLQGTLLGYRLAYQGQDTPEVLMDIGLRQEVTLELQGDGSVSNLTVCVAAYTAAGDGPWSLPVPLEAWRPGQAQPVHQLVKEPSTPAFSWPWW

B1: HC-T030A (antibody, V domains shown)
VH: EVQLVQSGAEVKKPGATVKISCKVSGYSFAGHTMNWIRQPPGKGLEWIGLIKPSNGGTSYNQKFKGRVTISADKSISTAYLQWSSLKASDTAMYYCAHGHYESYFAMDYWGQGTLVTVSS
VL: DIQMTQSPSSLSASVGDRVTITCKASQDVSSAVAWYQQKPGQAPRLLIYWASTRHTGVPSRFSGSGSGTEFTLTISSLQPDDFATYYCQEHFSTPLTFGQGTKVEIK
B2: HC-N035I (antibody, V domains shown)
VH: B1 VH with A30T, N35I
VL: B1 VL
B3: HC-E102V (antibody, V domains shown)
VH: B1 VH with A30T, E102V
VL: B1 VL
B4: HC-E102N (antibody, V domains shown)
VH: B1 VH with A30T, E102N
VL: B1 VL
B5: HC-E102A (antibody, V domains shown)
VH: B1 VH with A30T, E102A
VL: B1 VL
B6: HC-S059T (antibody, V domains shown)
VH: B1 VH with A30T, S59T
VL: B1 VL
B7: HC-E102D (antibody, V domains shown)
VH: B1 VH with A30T, E102D
VL: B1 VL
B8: HC-E102I (antibody, V domains shown)
VH: B1 VH with A30T, E102I
VL: B1 VL
B9: HC-E102Y (antibody, V domains shown)
VH: B1 VH with A30T, E102Y
VL: B1 VL
B10: HC-P053N (antibody, V domains shown)
VH: B1 VH with A30T, P53N
VL: B1 VL
B11: HC-Y104C (antibody, V domains shown)
VH: B1 VH with A30T, Y104C
VL: B1 VL
B12: HC-S103N (antibody, V domains shown)
VH: B1 VH with A30T, S103N
VL: B1 VL
B13: HC-W110H (antibody, V domains shown)
VH: B1 VH with A30T, W110H
VL: B1 VL
B14: HC-H100E (antibody, V domains shown)
VH: B1 VH with A30T, H100E
VL: B1 VL
B15: HC-E102R (antibody, V domains shown)
VH: B1 VH with A30T, E102R
VL: B1 VL
B16: HC-Y104P (antibody, V domains shown)
VH: B1 VH with A30T, Y104P
VL: B1 VL
B17: HC-S103D (antibody, V domains shown)
VH: B1 VH with A30T, S103D
VL: B1 VL
B18: HC-Y101N (antibody, V domains shown)
VH: B1 VH with A30T, Y101N
VL: B1 VL
B19: HC-S059I (antibody, V domains shown)
VH: B1 VH with A30T, S59I
VL: B1 VL
B20: HC-H100W (antibody, V domains shown)
VH: B1 VH with A30T, H100W
VL: B1 VL
B21: HC-H100P (antibody, V domains shown)
VH: B1 VH with A30T, H100P
VL: B1 VL
B22: HC-E102F (antibody, V domains shown)
VH: B1 VH with A30T, E102F
VL: B1 VL
B23: HC-S103Q (antibody, V domains shown)
VH: B1 VH with A30T, S103Q
VL: B1 VL
B24: HC-E102L (antibody, V domains shown)
VH: B1 VH with A30T, E102L
VL: B1 VL
B25: HC-S103M (antibody, V domains shown)
VH: B1 VH with A30T, S103M
VL: B1 VL
B26: HC-H100D (antibody, V domains shown)
VH: B1 VH with A30T, H100D
VL: B1 VL
B27: HC-F105S (antibody, V domains shown)
VH: B1 VH with A30T, F105S
VL: B1 VL
B28: HC-H100R (antibody, V domains shown)
VH: B1 VH with A30T, H100R
VL: B1 VL
B29: HC-T033I (antibody, V domains shown)
VH: B1 VH with A30T, T33I
VL: B1 VL
B30: HC-F105N (antibody, V domains shown)
VH: B1 VH with A30T, F105N
VL: B1 VL
B31: HC-Y104E (antibody, V domains shown)
VH: B1 VH with A30T, Y104E
VL: B1 VL

What was measured:
[1] = target: T1, Axl protein; experiment: ELISA, 1:3 dilution, pH 6.0 over pH 7.4
[2] = target: T1, Axl protein; experiment: ELISA, 1:9 dilution, pH 6.0 over pH 7.4

Binder	Affinity ELISA CPE mutant ratio (1:3, pH 6.0/7.4) [1]	Affinity ELISA CPE mutant ratio (1:9, pH 6.0/7.4) [2]
B1	1.29 ratio	1.76 ratio
B2	2.81 ratio	1.12 ratio
B3	1.93 ratio	2.51 ratio
B4	1.52 ratio	1.57 ratio
B5	1.54 ratio	1.69 ratio
B6	1.02 ratio	1.93 ratio
B7	2.67 ratio	2.85 ratio
B8	2.02 ratio	1.7 ratio
B9	2.61 ratio	1.99 ratio
B10	1.4 ratio	1.89 ratio
B11	1.84 ratio	1.74 ratio
B12	1.07 ratio	3.18 ratio
B13	7.99 ratio	0.932 ratio
B14	2.77 ratio	3.62 ratio
B15	3.7 ratio	3.42 ratio
B16	2.54 ratio	2.42 ratio

Binder	Affinity ELISA CPE mutant ratio (1:3, pH 6.0/7.4) [1]	Affinity ELISA CPE mutant ratio (1:9, pH 6.0/7.4) [2]
B17	4.24 ratio	2.23 ratio
B18	2.17 ratio	2.91 ratio
B19	30.5 ratio	2.06 ratio
B20	4.94 ratio	5.91 ratio
B21	2.58 ratio	1.18 ratio
B22	1.88 ratio	1.36 ratio
B23	0.912 ratio	2.26 ratio
B24	3.27 ratio	2.7 ratio
B25	1.78 ratio	1.81 ratio
B26	2.42 ratio	3.09 ratio
B27	3.9 ratio	4.54 ratio
B28	1.88 ratio	2.51 ratio
B29	1.59 ratio	1 ratio
B30	2.36 ratio	2.64 ratio
B31	1.32 ratio	1.8 ratio
